Measured values taken from patent US20190030156A1.

Target: prefusion F hybrid: RSV F (S155C/S290C plus A102C/I148C) with transmembrane domain and cytoplasmic tail of hMPV F, on VLPs (human respiratory syncytial virus; human metapneumovirus) (UniProt P12568)
Assay: dot blot of VLPs, 5C4 signal normalized over Palivizumab, 3 independent experiments

Q: For “5C4, a mouse monoclonal antibody (mAb) specific for the prefusion-only antigen site Φ”, which fold recognition relative to postfusion F is on record?
A: 19.2 fold
